In patent US20260055205A1 (published 2026):
Changes are numbered by the printed parent chain.

B1: PSMA.306 (bispecific antibody, V domains shown)
VH: QVQLVESGGGVVQPGRSLRLSCAASGRTFGIYVMGWFRQAPGKEREFVGAMSWSGSNRKVSDSVKGRFTISRDNSKNTLYLQMNSLRAEDTAVYYCAASNKLYGRTWYDFNESDYWGQGTQVTVSS
notes: TCE with CD3.23; also called AC3708
B2: PSMA.322 (bispecific antibody, V domains shown)
VH: B1 VH with M51I, Y94S, A98G
notes: TCE with CD3.23; also called AC3724
B3: PSMA.308 (bispecific antibody, V domains shown)
VH: B1 VH with M34W, L102W
notes: TCE with CD3.23; also called AC3710
B4: PSMA.303 (bispecific antibody, V domains shown)
VH: B1 VH with Y95F
notes: TCE with CD3.23; also called AC3705
B5: PSMA.320 (bispecific antibody, V domains shown)
VH: B1 VH with M51I, Y94G, A98G
notes: TCE with CD3.23; also called AC3722
B6: PSMA.312 (bispecific antibody, V domains shown)
VH: B1 VH with M51I, A97G
notes: TCE with CD3.23; also called AC3714
B7: PSMA.301 (bispecific antibody, V domains shown)
VH: B1 VH with M51I, Y95F
notes: TCE with CD3.23; also called AC3703
B8: PSMA.309 (bispecific antibody, V domains shown)
VH: B1 VH with M34W, Y95F, L102W
notes: TCE with CD3.23; also called AC3711
B9: PSMA.310 (bispecific antibody, V domains shown)
VH: B1 VH with M51I, A97G, A98G
notes: TCE with CD3.23; also called AC3712
B10: PSMA.324 (bispecific antibody, V domains shown)
VH: B1 VH with M51I, Y94A, Y95F
notes: TCE with CD3.23; also called AC3726
B11: PSMA.314 (bispecific antibody, V domains shown)
VH: B1 VH with M51I, L102D
notes: TCE with CD3.23; also called AC3716
B12: PSMA.311 (bispecific antibody, V domains shown)
VH: B1 VH with M51I, Y94D
notes: TCE with CD3.23; also called AC3713
B13: PSMA.323 (bispecific antibody, V domains shown)
VH: B1 VH with M51I, Y94T, A98G
notes: TCE with CD3.23; also called AC3725
B14: PSMA.315 (bispecific antibody, V domains shown)
VH: B1 VH with M51I, L102E
notes: TCE with CD3.23; also called AC3717
B15: PSMA.316 (bispecific antibody, V domains shown)
VH: B1 VH with M51I, L102G
notes: TCE with CD3.23; also called AC3718
B16: PSMA.313 (bispecific antibody, V domains shown)
VH: B1 VH with M51I, L102R
notes: TCE with CD3.23; also called AC3715
B17: PSMA.319 (bispecific antibody, V domains shown)
VH: B1 VH with M51I, Y94N, A98G
notes: TCE with CD3.23; also called AC3721
B18: PSMA.305 (bispecific antibody, V domains shown)
VH: B1 VH with M34W, M51I
notes: TCE with CD3.23; also called AC3707
B19: PSMA.304 (bispecific antibody, V domains shown)
VH: B1 VH with M34W, Y95F
notes: TCE with CD3.23; also called AC3706
B20: PSMA.317 (bispecific antibody, V domains shown)
VH: B1 VH with M51I, Y94A, A98G
notes: TCE with CD3.23; also called AC3719
B21: PSMA.318 (bispecific antibody, V domains shown)
VH: B1 VH with M51I, Y94R, A98G
notes: TCE with CD3.23; also called AC3720
B22: PSMA.307 (bispecific antibody, V domains shown)
VH: B1 VH with M34W
notes: TCE with CD3.23; also called AC3709
B23: PSMA.321 (bispecific antibody, V domains shown)
VH: B1 VH with M51I, Y94K, A98G
notes: TCE with CD3.23; also called AC3723
B24: PSMA.302 (bispecific antibody, V domains shown)
VH: B1 VH with M34W, M51I, Y95F
notes: TCE with CD3.23; also called AC3704

Target: T1, human PSMA (human, UniProt Q04609 44-750, limits assumed)
T1 construct: also called huPSMA; hPSMA
T1 sequence (Q04609 44-750 limits assumed): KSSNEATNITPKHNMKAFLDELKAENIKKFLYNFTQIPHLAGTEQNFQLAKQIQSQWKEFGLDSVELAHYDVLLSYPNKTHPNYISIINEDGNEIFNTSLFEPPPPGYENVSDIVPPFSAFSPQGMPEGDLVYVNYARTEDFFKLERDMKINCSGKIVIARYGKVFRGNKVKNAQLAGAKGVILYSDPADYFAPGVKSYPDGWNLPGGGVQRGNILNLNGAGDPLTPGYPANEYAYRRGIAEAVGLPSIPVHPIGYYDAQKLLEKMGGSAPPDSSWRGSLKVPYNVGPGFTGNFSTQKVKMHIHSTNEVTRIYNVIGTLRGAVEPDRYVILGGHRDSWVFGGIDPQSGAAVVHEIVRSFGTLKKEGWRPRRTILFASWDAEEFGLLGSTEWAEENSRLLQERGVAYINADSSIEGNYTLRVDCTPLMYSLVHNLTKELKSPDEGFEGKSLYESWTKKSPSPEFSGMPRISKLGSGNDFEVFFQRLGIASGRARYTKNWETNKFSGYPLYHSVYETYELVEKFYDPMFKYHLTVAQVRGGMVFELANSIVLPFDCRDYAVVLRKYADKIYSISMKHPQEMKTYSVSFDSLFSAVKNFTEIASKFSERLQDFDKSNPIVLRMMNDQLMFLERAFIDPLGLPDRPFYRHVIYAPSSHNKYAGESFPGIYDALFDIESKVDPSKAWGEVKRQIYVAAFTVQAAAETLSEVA
Experiment: binding screen

Binder | Kd [nM] | binding result
B1 | 10.4 | 
B2 |  | no binding
B3 | 8.8 | 
B4 | 10.3 | 
B5 |  | no binding
B6 | 12 | 
B7 | 10 | 
B8 | 8.5 | 
B9 | 23.1 | 
B10 |  | no binding
B11 | 69.9 | 
B12 |  | no binding
B13 |  | no binding
B14 | 24.2 | 
B15 | 150 | 
B16 |  | no binding
B17 |  | no binding
B18 |  | binds
B19 | 5.9 | 
B20 |  | no binding
B21 |  | no binding
B22 | 6 | 
B23 |  | no binding
B24 | 2.8 | 
